Reference: paper PMC3162038

Substrate: N[C@H]1C[C@H](COP(=O)(O)O)[C@@H](O)[C@H](O)[C@H]1O
Test: PK/LDH coupled colorimetric assay at A340, Hanes-Woolf plot
Assay type: biochemical, Streptomyces hygroscopicus
Conditions: 300 μM GDP-valienol, 50 mM Tris-HCl pH 7.5, 5 mM MgCl2, apparent

B1: VldE (Streptomyces hygroscopicus subsp. limoneus) (protein)
chain: MTGSEIFLASKRAAITYDTDPATGEPRAWLAPGGTGNVVAEQAGVLNISWIASADSEDDRRASALNPDGVTMELHSGREILVRLIRHDPAVFRNVQNFMTANLMWAANNYGWDRWTQPSFGSDAREGWADFGRFTRDFADAILKSSAQSADPVYLVHDYQLVGVPALLREQRPDAPILLFVHIPWPSADYWRILPKEIRTGILHGMLPATTIGFFADRWCRNFLESVADLLPDARIDREAMTVEWRGHRTRLRTMPLGYSPLTLDGRNPQLPEGIEEWADGHRLVVHSGRTDPIKNAERAVRAFVLAARGGGLEKTRMLVRMNPNRLYVPANADYVHRVETAVAEANAELGSDTVRIDNDNDVNHTIACFRRADLLIFNSTVDGQNLSTFEAPLVNERDADVILSETCGAAEVLGEYCRSVNPFDLVEQAEAISAALAAGPRQRAEAAARRRDAARPWTLEAWVQAQLDGLAADHAARTATAERFDTAPAVSTRADL
With B1 the Km was 308.0 ± 34.5 µM.
